Literature values, collected in publication PMC12405408.
pKd: −log10 of the molar value.

Target: CaSR (Homo sapiens) (UniProt P41180)
Sequence of UniProt P41180 (P41180 20-1078): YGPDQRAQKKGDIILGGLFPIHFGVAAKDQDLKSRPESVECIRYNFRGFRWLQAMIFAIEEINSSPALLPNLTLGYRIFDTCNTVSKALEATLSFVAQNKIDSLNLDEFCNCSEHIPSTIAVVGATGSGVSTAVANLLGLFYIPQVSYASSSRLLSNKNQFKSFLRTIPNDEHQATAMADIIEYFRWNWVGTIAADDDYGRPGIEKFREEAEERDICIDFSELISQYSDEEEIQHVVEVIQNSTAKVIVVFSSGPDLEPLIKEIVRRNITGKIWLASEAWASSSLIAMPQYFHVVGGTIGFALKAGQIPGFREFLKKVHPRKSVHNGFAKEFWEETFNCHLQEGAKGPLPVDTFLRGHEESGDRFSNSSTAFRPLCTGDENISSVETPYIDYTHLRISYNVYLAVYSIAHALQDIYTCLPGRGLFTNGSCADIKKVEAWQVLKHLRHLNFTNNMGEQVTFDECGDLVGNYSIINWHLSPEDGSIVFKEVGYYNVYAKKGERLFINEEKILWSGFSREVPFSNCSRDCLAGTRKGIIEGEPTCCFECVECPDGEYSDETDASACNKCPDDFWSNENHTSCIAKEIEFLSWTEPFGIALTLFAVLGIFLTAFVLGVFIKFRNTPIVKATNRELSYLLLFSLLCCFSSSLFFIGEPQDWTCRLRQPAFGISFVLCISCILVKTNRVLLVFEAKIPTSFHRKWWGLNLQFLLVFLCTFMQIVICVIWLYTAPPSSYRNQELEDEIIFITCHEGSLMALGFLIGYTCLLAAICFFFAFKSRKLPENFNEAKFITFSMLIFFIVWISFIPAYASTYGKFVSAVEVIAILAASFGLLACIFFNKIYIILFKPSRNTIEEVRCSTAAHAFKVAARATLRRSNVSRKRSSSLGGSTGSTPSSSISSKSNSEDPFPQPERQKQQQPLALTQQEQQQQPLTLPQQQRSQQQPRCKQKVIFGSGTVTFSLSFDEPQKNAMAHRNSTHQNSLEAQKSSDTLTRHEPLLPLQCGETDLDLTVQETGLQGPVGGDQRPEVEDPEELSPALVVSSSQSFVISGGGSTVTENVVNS

pKd: 8.49
Substance: EWVPVTK peptide
